For assay [1], the target named is HLA-A*02:01 on T2 cells alone (no peptide added) (human). In words: flow cytometry, HLA-A2 staining of T2 without peptide.
Assay [2] concerns the target HLA-A2 on MAC-1 and MAC-2A cells (Homo sapiens), A*02:0. In words: flow cytometry on MAC-1 cells, HLA-A2 staining; isotype control 93.6. On the technique in general: In flow cytometry, cells or beads pass a laser one at a time.
For assay [3] the target is unchanged. In words: flow cytometry on MAC-2A cells, HLA-A2 staining; isotype control 86.2.
Assay [4] addresses 017-mut1 peptide (…)/HLA-A*02:01 complex on T2 cells (human). In words: flow cytometry, HLA-A2 staining of T2 pulsed with peptide A1 (T2 stabilisation).
For assay [5], the target named is 017-mut2 peptide (…)/HLA-A*02:01 complex on T2 cells (human). In words: flow cytometry, HLA-A2 staining of T2 pulsed with peptide A2 (T2 stabilisation).
Assay [6] addresses 017-mut3 peptide (…)/HLA-A*02:01 complex on T2 cells (human). In words: flow cytometry, HLA-A2 staining of T2 pulsed with peptide A3 (T2 stabilisation).
Assay [7] addresses 017-mut5 peptide (…)/HLA-A*02:01 complex on T2 cells (human). In words: flow cytometry, HLA-A2 staining of T2 pulsed with peptide A5 (T2 stabilisation).
The target in assay [8] is 017-mut7 peptide (…)/HLA-A*02:01 complex on T2 cells (human). In words: flow cytometry, HLA-A2 staining of T2 pulsed with peptide A7 (T2 stabilisation).
The target of assay [9] is 017-mut8 peptide (…)/HLA-A*02:01 complex on T2 cells (human). In words: flow cytometry, HLA-A2 staining of T2 pulsed with peptide A8 (T2 stabilisation).
The target of assay [10] is 017-mut9 peptide (…)/HLA-A*02:01 complex on T2 cells (human). In words: flow cytometry, HLA-A2 staining of T2 pulsed with peptide A9 (T2 stabilisation).
Assay [11] has as its target T2+FoxP7-G10 (Homo sapiens), A*02:0. In words: flow cytometry, HLA-A2 staining of T2 pulsed with peptide G10 (T2 stabilisation).
The target of assay [12] is Foxp3-7 peptide/HLA-A*02:01 complex on the cell surface (human). In words: flow cytometry, HLA-A2 staining of T2 pulsed with the wild type Foxp3-7 peptide (T2 stabilisation).
For assay [13], the target named is HLA-A2 on MAC-1 and MAC-2A cells (Homo sapiens), A*02:0. In words: flow cytometry on MAC-1 cells, isotype control of BB7.
Assay [14] has the same target. In words: flow cytometry on MAC-2A cells, isotype control of BB7.

Experimental findings from US20190284262A1 are described below.

In the case of BB7 (antibody), the Median:FITC-A worked out at 6940 in assay [1]; 35000 in assay [2]; 44000 in assay [3]; 29600 in assay [4]; 11200 in [5]; 35100 in assay [6]. The Median:FITC-A turned out to be 10400 in assay [7]; 18600 in assay [8]; 16500 in assay [9]; 10400 in assay [10]; 34100 in assay [11]; 18000 in [12].
For the substance mIso (antibody), the Median:FITC-A in assay [13] was 93.6; in assay [14], 86.2.
